Reference: patent US20230095569A1 (ANTENGENE BIOLOGICS, published 2023)
Positions count from the first letter of the chain named.

B1: Ab10 (antibody, V domains shown)
VH: EVMLVESGGGLVKPGGSLKLSCAASGFTFSSYTMSWVRQTPEKRLEWVATISVIGGNTYYVDSVKGRFTISRDKAKNTLYLQMSSLRSEDTALYYCARLGQTQRNAMDYWGQGTSVTVSS
VL: DIVMTQSPSSLSVSAGEKVTMSCKSSQSLLNSGNQKNYLAWYQQKPGQPPKLLIYGASTRESGVPDRFTGSGSGTDFTLTISSVQAEDLAVYYCQNDYSYPLTFGAGTKLELK
notes: mouse monoclonal (hybridoma)
B2: chAb05 (antibody, V domains shown)
VH: DVKLVESGEDLVKPGGSLKLSCAASGFTFSNYAMSWVRQTPEKRLEWVAYVSSGGDYIYYADTVKGRFIISRDNARNTLYLQMNSLRSEDTAMYYCARVYFGNSLDYWGQGTTLTVSS
VL: DIVMTQSPSSLTVTAGEKVTLSCKSSQSLLNGGNQKNYLTWYQQRPGQPPKLLIYWASTRESGVPDRFTGSGSGTDFTLIISSVQAEDLAVYYCQNDYYYPWTFGGGTKLEIK
B3: IMAB362 (Zolbetuximab) (antibody, V domains shown)
VH: QVQLQQPGAELVRPGASVKLSCKASGYTFTSYWINWVKQRPGQGLEWIGNIYPSDSYTNYNQKFKDKATLTVDKSSSTAYMQLSSPTSEDSAVYYCTRSWRGNSFDYWGQGTTLTVSS
VL: DIVMTQSPSSLTVTAGEKVTMSCKSSQSLLNSGNQKNYLTWYQQKPGQPPKLLIYWASTRESGVPDRFTGSGSGTDFTLTISSVQAEDLAVYYCQNDYSYPFTFGSGTKLEIKR
B4: chAb17 (antibody, V domains shown)
VH: QVQLKESGPGLVAPSQSLSITCTVSGFSLTSYAISWVRQPPGKGLEWLGEIWTGGGTNYNSALKSRLSISKDNSKSQVFLKMNSLQTDDTARYYCGRLSYGNSLDYWGQGTTLTVSS
VL: B1 VL with S12T, S14T, A40T, G56W, I81V, D97N, Y98F, S99I, A106P
B5: chAb10 (antibody, V domains shown)
VH: B1 VH
VL: B1 VL
B6: chAb15 (antibody, V domains shown)
VH: EVMLVESGGDLVKPGGSLKLSCAASGFTFSTYTMSWVRQTPEKRLEWVATIVGGGGYTYYLDSVKGRFTISRDNAKNTLYLQMISLRSEDTALYYCARMGLTQRNALDYWGQGTSITVSS
VL: B1 VL with A15E, M21L, S22N, L30F, S73F, Y98H, S99T, T108A
B7: chAb20 (antibody, V domains shown)
VH: B1 VH with A23V, S52I, V53G, I54G, G55Y, V61S, F68I, K74S, S84I, A97T
VL: DILMTQSPSSLSVSAGEKVTMNCKSSQSLLNSGNQKNYLAWYQQKPGQPPKLLIYGASTRESGVPDRFTGSGSGTDFTLTISSVQAEDLAVYYCQNDYYYPFTFGAGTKLEL

What follows are binders tested against T1, human Claudin18.1 (CLDN18.1) (human, UniProt P56856 1-261) (assay: FACS (FIGS. 1A and 1B)).
T1 construct: whole, on cells; also called human Claudine18.1

Q: Does B1 bind?
A: no binding

Each binder was assayed against T2, human Claudin18.2 (CLDN18.2) (human, UniProt P56856 1-261) (assay: FACS on GAXC031 cells).
T2 construct: the cell line is named under assay; also called human Claudine18.2; hClaudin18.2

Q: How did the EC50 turn out when B2 was run?
A: 73.8 nM

Q: Which EC50 does the source give for B3 here?
A: 36.1 nM

Q: How did the EC50 turn out when B4 was run?
A: 94.2 nM

Q: With B5 as the binder, how does the EC50 read?
A: 29.2 nM

Q: For B6, which EC50 is on record?
A: 31.9 nM

Q: With B7 as the binder, how does the EC50 read?
A: 42.9 nM

What follows are binders tested against T2, human Claudin18.2 (CLDN18.2) (assay: cell-based or functional assay).

Q: What does the source list for B2?
A: ADCC EC50: 5.92 nM; Max tumor cell killing (% of control), ADCC: 57.9 % of control

Q: Which results are given for B3?
A: ADCC EC50: 36.1 nM; Max tumor cell killing (% of control), ADCC: 30.7 % of control

Q: Which results are given for B4?
A: ADCC EC50: 2.46 nM; Max tumor cell killing (% of control), ADCC: 60.6 % of control

Q: How did the “ADCC EC50” value turn out when B5 was run?
A: 1.68 nM

Q: What about the “Max tumor cell killing (% of control), ADCC” value of the same binder?
A: 55.2 % of control

Q: Which “ADCC EC50” value does the source give for B6 here?
A: 2.65 nM

Q: And the “Max tumor cell killing (% of control), ADCC” value?
A: 36.5 % of control

Q: What does the source list for B7?
A: ADCC EC50: 4.14 nM; Max tumor cell killing (% of control), ADCC: 62.9 % of control

Target: T2, human Claudin18.2 (CLDN18.2)
Experiment: cell-based or functional assay
Remark: another data set of the same source

Q: For B2, which “CDC EC50” value is on record?
A: 17.8 nM

Q: What about the “Max CDC induced tumor cell killing (% of control)” value of the same binder?
A: 78.9 % of control

Q: Which results are given for B3?
A: CDC EC50: 809 nM; Max CDC induced tumor cell killing (% of control): 52.5 % of control

Q: With B4 as the binder, how does the “CDC EC50” value read?
A: 9.93 nM

Q: And the “Max CDC induced tumor cell killing (% of control)” value?
A: 70.8 % of control

Q: For B5, which “CDC EC50” value is on record?
A: 2.69 nM

Q: And the “Max CDC induced tumor cell killing (% of control)” value?
A: 82.7 % of control

Q: With B6 as the binder, how does the “CDC EC50” value read?
A: 8.15 nM

Q: And the “Max CDC induced tumor cell killing (% of control)” value?
A: 77.4 % of control

Q: Which “CDC EC50” value does the source give for B7 here?
A: 8.82 nM

Q: What about the “Max CDC induced tumor cell killing (% of control)” value of the same binder?
A: 73 % of control

Target: T2, human Claudin18.2 (CLDN18.2)
Experiment: cell-based or functional assay
Remark: another data set of the same source

Q: How did the “IC50 of indirect ADC cytotoxicity” value turn out when B2 was run?
A: 0.99 nM

Q: And the Max inhibition %?
A: 92.3%

Q: Which “IC50 of indirect ADC cytotoxicity” value does the source give for B3 here?
A: 4.75 nM

Q: What about the Max inhibition % of the same binder?
A: 81.8%

Q: B4 was tested. Which “IC50 of indirect ADC cytotoxicity” value did it give?
A: 0.88 nM

Q: What about the Max inhibition % of the same binder?
A: 92.4%

Q: What does the source list for B5?
A: IC50 of indirect ADC cytotoxicity: 0.24 nM; Max inhibition %: 92.8%

Q: B6 was tested. Which “IC50 of indirect ADC cytotoxicity” value did it give?
A: 0.38 nM

Q: What about the Max inhibition % of the same binder?
A: 92.4%

Q: Which results are given for B7?
A: IC50 of indirect ADC cytotoxicity: 0.47 nM; Max inhibition %: 92.8%

Each binder was assayed against T1, human Claudin18.1 (CLDN18.1) (assay: FACS on CHOK1-18.1 cells;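 further: test antibody binding to the cells detected by flow cytometry using a fluorescent dye-labelled secondary antibody, read out as median fluorescence intensity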).
Protocol: (§1) The specificity and cross-reactivity of these subclones were confirmed with FACs analysis. […] Fluorescent dye-conjugated secondary antibody was used to detect the binding of the primary antibody with the cells. Median fluorescence intensity (MFI) was measured by FACs analysis.

Q: For B1, which “FACS MFI” value is on record?
A: 80.8

The binders below were run against T2, human Claudin18.2 (CLDN18.2) (assay: FACS on CHOK1-18.2 cells;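 on FACS MFI: antibody binding to the cells detected with a fluorescently labelled secondary antibody and read out as median fluorescence intensity by flow cytometry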).
Protocol: as §1

Q: How did the “FACS MFI” value turn out when B1 was run?
A: 8400

Target: T2, human Claudin18.2 (CLDN18.2)
Experiment: FACS on CHOK1-18.2 cells
Remark: another data set of the same source

Q: With B2 as the binder, how does the EC50 read?
A: 5 nM

Q: How did the EC50 turn out when B3 was run?
A: 5.69 nM

Q: With B4 as the binder, how does the EC50 read?
A: 4.74 nM

Q: For B5, which EC50 is on record?
A: 2.27 nM

Q: With B6 as the binder, how does the EC50 read?
A: 4.64 nM

Q: How did the EC50 turn out when B7 was run?
A: 3.88 nM

Each binder was assayed against T2, human Claudin18.2 (CLDN18.2) (assay: FACS on GAXC031 cells, antibody at 50 µg/ml).

Q: How did the “MAX MFI” value turn out when B2 was run?
A: 4600

Q: Which “MAX MFI” value does the source give for B3 here?
A: 742

Q: For B4, which “MAX MFI” value is on record?
A: 4230

Q: With B5 as the binder, how does the “MAX MFI” value read?
A: 6940

Q: With B6 as the binder, how does the “MAX MFI” value read?
A: 6110

Q: How did the “MAX MFI” value turn out when B7 was run?
A: 6260

What follows are binders tested against T2, human Claudin18.2 (CLDN18.2) (assay: FACS on CHOK1-18.2 cells, antibody at 50 µg/ml).

Q: For B2, which “MAX MFI” value is on record?
A: 83900

Q: B3 was tested. Which “MAX MFI” value did it give?
A: 49600

Q: With B4 as the binder, how does the “MAX MFI” value read?
A: 83800

Q: B5 was tested. Which “MAX MFI” value did it give?
A: 80400

Q: With B6 as the binder, how does the “MAX MFI” value read?
A: 94000

Q: With B7 as the binder, how does the “MAX MFI” value read?
A: 65700
